In article PMC3134622 (Biochemistry, 2011):

Target: T1, GST-PBD46 (peptide derivative of p21-activated serine/threonine kinase, PAK Binding Domain 46)
T1 chain: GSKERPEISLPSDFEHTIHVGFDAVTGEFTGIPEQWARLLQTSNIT
Experiment: pull-down

B1: Cdc42 wild type (natural protein)
chain: not shown
B1 was tested, and the “ΔI (pull-down band intensity, wild type:PBD46 relative to T35A:PBD46)” value was 4.2 ± 0.59.
